What was measured:
LGR8 = target: T1, LGR8 (Homo sapiens, UniProt Q8WXD0); assay: Radioligand competition binding, [125I]-INSL3, live transfected COS-7 cells; conditions: highest concentration 1 μM
T1 construct: Human LGR8 cDNA containing the complete coding region was PCR amplified; expressed in transfected cells
Source text: FIGS. 3A-3D illustrate the characterization of various relaxin-3 chimeric polypeptides using radioligand binding assays. Different relaxin-3 chimeric polypeptides were characterized for their receptor binding properties for human recombinant GPCR135 (FIG. 3A), GPCR142 (FIG. 3B), LGR7 (FIG. 3C), or LGR8 (FIG. 3D). For GPCR135, GPCR142, and LGR7, [^125I]-relaxin-3 was used as the radioligand at a final concentration of 100 pM. Different unlabeled peptides were used in the binding assay as the competitors. For LGR8, [^125I]-INSL3 was used as the radioligand at a final concentration of 100 pM. Different unlabeled peptides including relaxin-3 chimeras at various concentrations were added to the binding assay as the competitors. Data represent mean±SEM (n=3).
Radioligand binding assays for LGR7 and LGR8 were performed using live COS-7 cells transiently transfected with LGR7 or LGR8 expression plasmids in 15-cm culture dishes using LipofectAmine (Invitrogen). Two days after transfection, the transfected cells were detached from the 15-cm culture dished using phosphate buffered saline (PBS) plus 10 mM EDTA, seeded into 96-well opaque poly-D-lysine coated culture plates and used for radioligand binding assays. For LGR7, [^125I]-relaxin-3 was used as the tracer. For LGR8, [^125I]-INSL3 (specific activity: 2200 Ci/mmol) was used as the tracer. [^125I]-labeled tracer was added in binding reactions at a final concentration of 100 pM in binding buffer containing DMEM plus 50 mM HEPES and 1% bovine serum albumin. Unlabeled relaxin-3 and relaxin-3 chimeric polypeptides were added at various concentrations to the binding assays as the competitors, as indicated (FIG. 3). The binding mixtures were incubated at room temperature for 1 hour. The unbound radioligand was removed by aspiration of the binding buffer. The cells were washed with PBS. The bound radioligand was counted in a scintillation counter (TopCount/NTX). The results were analyzed using Prism 3.0 program (Graphpad, San Diego, Calif.). The IC50 values represent the ligand concentrations that inhibit 50% of the maximum specific binding.

GPCR142 = target: T2, GPCR142 (Homo sapiens, UniProt Q8TDU9, L329S); assay: Inhibition of forskolin stimulated β-galactosidase expression in SK-N-MC/β-gal cells; type: cell-based
T2 construct: expressed in transfected cells
Method: (§1) In FIG. 1A, SK-N-MC/β-gal cells expressing human GPCR135 were stimulated with relaxin-3, relaxin-3 B-chain, porcine relaxin, or INSL3 at various concentrations to inhibit the forskolin stimulated β-galactosidase expression. Forskolin was added to cells at a final concentration of 5 μM to stimulate the β-galactosidase expression. FIG. 1B depicts results for SK-N-MC/β-gal cells expressing human GPCR142 stimulated as in FIG. 1A. In FIG. 1C, SK-N-MC/β-gal cells expressing human LGR7 were stimulated with relaxin-3, relaxin-3 B-chain, porcine relaxin, and INSL3 at various concentrations to induce the β-galactosidase expression. The intracellular β-galactosidase activities were measured by a colorimetric assay using CRGP as the substrate and reading the absorbance at a wavelength of 570 nm. For FIG. 1D, SK-N-MC/β-gal cells expressing human LGR8 were stimulated as in FIG. 1C.
(§2) Different chimeric polypeptides at various concentrations were added to SK-N-MC/β-gal cells expressing human GPCR135 (FIG. 4A) or GPCR142 (FIG. 4B) to inhibit forskolin stimulated β-galactosidase expression. […] In parallel, chimeric polypeptides at various concentrations were added to SK-N-MC/β-gal cells expressing human LGR7 (FIG. 4C) and LGR8 (FIG. 4D) to stimulate β-galactosidase expression. Relaxin-3 and INSL3 were used as positive controls for LGR7 and LGR8, respectively. Intracellular β-galactosidase activity was measured by a colorimetric assay using CRGP as the substrate and reading the absorbance at wavelength of 570 nm. Data represent mean±SEM (n=3).
(§3) In such SK-N-MC/β-gal cells, an increase in intracellular cAMP concentration leads to increased β-galactosidase gene expression, the activity of which is measured using Chlorophenol Red-β-D-Galactopyranoside (CPRG) as the substrate.
(§4) The inventive chimeric polypeptides were each independently tested for their ability to activate either GPCR135, GPCR142, LGR7, or LGR8, respectively, in separate pools of SK-N-MC/β-gal cells (see supra), each pool stably expressing one of the respective receptors, as indicated (FIG. 4).
(§5) Cells were seeded in 96-well tissue culture plate at a density of 30,000 cells/well in MEM plus 10% fetal serum, sodium pyruvate, penicillin, streptomycin, and G418 (400 mg/L). For cells expressing GPCR135 or GPCR142, forskolin was added to cells at a final concentration of 5 μM to stimulate intracellular cAMP accumulation. Different concentrations of each of the inventive polypeptides were then added to the cells to inhibit the forskolin induced cAMP accumulation. For cells expressing LGR7 or LGR8, intracellular cAMP was stimulated with each of the inventive chimeric polypeptides at various concentrations.
(§6) For all cells, after adding the chimeric polypeptides, cells were incubated for 6 additional hours in 37° C. incubator. The media was then aspirated and the β-galactosidase activities measured as previously described (Liu et al., 2001, Molecular Pharmacology, 59:420-426). The results were analyzed by Prism 3.0 software.

LGR7 = target: T3, LGR7 (Homo sapiens, UniProt Q9HBX9); assay: Radioligand competition binding, [125I]-relaxin-3, live transfected COS-7 cells
T3 construct: Human LGR7 cDNA containing the complete coding region was PCR amplified; expressed in transfected cells
T3 sequence (Q9HBX9 1-757): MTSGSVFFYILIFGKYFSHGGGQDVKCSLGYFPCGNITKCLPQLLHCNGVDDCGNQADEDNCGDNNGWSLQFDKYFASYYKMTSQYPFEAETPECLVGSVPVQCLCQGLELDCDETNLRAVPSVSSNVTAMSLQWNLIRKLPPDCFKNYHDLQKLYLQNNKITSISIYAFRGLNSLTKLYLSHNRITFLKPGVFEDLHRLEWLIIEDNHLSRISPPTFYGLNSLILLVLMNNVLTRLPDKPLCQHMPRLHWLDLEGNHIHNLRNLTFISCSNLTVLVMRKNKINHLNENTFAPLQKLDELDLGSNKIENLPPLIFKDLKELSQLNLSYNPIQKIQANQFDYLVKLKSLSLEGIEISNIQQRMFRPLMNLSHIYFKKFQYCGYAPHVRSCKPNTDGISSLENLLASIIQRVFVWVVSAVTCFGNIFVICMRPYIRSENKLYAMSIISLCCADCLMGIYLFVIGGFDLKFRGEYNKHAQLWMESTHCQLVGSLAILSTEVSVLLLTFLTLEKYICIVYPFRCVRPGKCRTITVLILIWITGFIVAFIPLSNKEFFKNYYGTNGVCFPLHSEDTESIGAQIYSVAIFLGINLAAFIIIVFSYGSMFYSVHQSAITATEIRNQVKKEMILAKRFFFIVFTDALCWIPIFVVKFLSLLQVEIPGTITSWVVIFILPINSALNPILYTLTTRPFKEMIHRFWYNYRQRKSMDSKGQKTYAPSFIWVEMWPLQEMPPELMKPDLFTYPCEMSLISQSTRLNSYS
Method: For GPCR135, GPCR142, and LGR7, [^125I]-relaxin-3 was used as the radioligand at a final concentration of 100 pM. Different unlabeled peptides were used in the binding assay as the competitors. […] Different unlabeled peptides including relaxin-3 chimeras at various concentrations were added to the binding assay as the competitors. Data represent mean±SEM (n=3).
Radioligand binding assays for LGR7 and LGR8 were performed using live COS-7 cells transiently transfected with LGR7 or LGR8 expression plasmids in 15-cm culture dishes using LipofectAmine (Invitrogen). Two days after transfection, the transfected cells were detached from the 15-cm culture dished using phosphate buffered saline (PBS) plus 10 mM EDTA, seeded into 96-well opaque poly-D-lysine coated culture plates and used for radioligand binding assays. For LGR7, [^125I]-relaxin-3 was used as the tracer. […] [^125I]-labeled tracer was added in binding reactions at a final concentration of 100 pM in binding buffer containing DMEM plus 50 mM HEPES and 1% bovine serum albumin. Unlabeled relaxin-3 and relaxin-3 chimeric polypeptides were added at various concentrations to the binding assays as the competitors, as indicated (FIG. 3). The binding mixtures were incubated at room temperature for 1 hour. The unbound radioligand was removed by aspiration of the binding buffer. The cells were washed with PBS. The bound radioligand was counted in a scintillation counter (TopCount/NTX). The results were analyzed using Prism 3.0 program (Graphpad, San Diego, Calif.). The IC50 values represent the ligand concentrations that inhibit 50% of the maximum specific binding.

GPCR135 = target: T4, GPCR135 (Homo sapiens, UniProt Q9NSD7); assay: Inhibition of forskolin stimulated β-galactosidase expression in SK-N-MC/β-gal cells; type: cell-based
T4 construct: expressed in transfected cells
T4 sequence (Q9NSD7 1-469): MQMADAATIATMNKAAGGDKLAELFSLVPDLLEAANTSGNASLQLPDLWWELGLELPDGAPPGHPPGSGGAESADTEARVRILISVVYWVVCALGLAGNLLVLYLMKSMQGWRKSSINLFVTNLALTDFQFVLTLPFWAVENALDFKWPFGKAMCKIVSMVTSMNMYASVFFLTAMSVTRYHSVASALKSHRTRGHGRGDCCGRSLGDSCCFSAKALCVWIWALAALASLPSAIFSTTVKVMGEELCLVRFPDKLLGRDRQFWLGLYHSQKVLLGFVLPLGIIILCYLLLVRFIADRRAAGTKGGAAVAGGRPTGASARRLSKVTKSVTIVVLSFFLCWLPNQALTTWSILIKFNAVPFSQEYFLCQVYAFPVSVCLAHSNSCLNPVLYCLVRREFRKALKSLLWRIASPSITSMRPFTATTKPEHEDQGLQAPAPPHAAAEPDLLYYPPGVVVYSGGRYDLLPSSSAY
Method: as §1, §2, §3, §4, §5, §6

[1] = highest concentration tested 1 μM
[2] = inhibition of 5 μM forskolin stimulated β-galactosidase expression, mean ± SEM, n = 3

T1 sequence (Q8WXD0 whole entry): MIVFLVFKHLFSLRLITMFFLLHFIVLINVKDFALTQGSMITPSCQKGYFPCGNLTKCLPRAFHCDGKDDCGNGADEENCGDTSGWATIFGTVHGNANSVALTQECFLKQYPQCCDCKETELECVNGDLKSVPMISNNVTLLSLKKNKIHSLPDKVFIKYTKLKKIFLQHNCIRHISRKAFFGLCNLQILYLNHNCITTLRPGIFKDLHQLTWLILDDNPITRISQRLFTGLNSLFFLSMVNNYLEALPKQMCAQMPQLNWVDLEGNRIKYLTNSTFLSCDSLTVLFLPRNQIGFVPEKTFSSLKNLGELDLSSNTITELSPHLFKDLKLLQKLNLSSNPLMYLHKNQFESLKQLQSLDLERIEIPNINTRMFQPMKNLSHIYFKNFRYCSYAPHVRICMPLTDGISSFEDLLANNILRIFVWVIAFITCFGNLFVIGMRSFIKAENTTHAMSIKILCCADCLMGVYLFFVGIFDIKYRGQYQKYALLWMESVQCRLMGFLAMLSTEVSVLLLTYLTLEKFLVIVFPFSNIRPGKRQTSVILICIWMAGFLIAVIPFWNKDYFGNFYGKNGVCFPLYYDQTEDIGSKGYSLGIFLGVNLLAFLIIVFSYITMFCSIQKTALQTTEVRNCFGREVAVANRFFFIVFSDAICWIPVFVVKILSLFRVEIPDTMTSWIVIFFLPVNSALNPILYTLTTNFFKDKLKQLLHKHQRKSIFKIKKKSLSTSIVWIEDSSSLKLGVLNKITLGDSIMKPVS
T2 sequence (Q8TDU9 whole entry L329S): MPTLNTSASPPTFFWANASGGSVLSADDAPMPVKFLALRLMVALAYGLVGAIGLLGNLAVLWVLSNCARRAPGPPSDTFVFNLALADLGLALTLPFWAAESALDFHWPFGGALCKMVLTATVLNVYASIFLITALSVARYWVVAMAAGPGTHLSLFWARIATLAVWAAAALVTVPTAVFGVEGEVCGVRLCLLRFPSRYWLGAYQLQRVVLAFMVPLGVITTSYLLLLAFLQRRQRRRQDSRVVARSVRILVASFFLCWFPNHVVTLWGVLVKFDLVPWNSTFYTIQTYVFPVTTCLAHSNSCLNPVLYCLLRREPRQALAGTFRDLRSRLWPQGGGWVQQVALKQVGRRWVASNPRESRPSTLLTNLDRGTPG

Substance | binding affinity for LGR8, in words (LGR8) | agonist activity at GPCR142, in words (GPCR142; [1]) | binding to LGR7, in words (LGR7; [1]) | agonist activity at GPCR135, in words (GPCR135; [1]) | EC50 to activate GPCR142 (GPCR142; [2]) | EC50 to activate GPCR135 (GPCR135; [2]) | affinity for LGR7 (LGR7; discussion)
R3/I4: chimeric polypeptide: human relaxin-3 B-chain and INSL4 A-chain; mature polypeptide SEQ ID NO:22 (RAAPYGVRLCGREFIRAVIFTCGGSRWFDPFCCEVICDDGTSVKLC; Human Relaxin-3/Insulin-like 4 chimeric mature polypeptide) | no binding affinity | stimulated GPCR135 or GPCR142 at the highest concentration (1 μM) tested only | inactive | stimulated GPCR135 or GPCR142 at the highest concentration (1 μM) tested only | – | – | –
R3/I5: chimeric polypeptide: human relaxin-3 B-chain and INSL5 A-chain; mature polypeptide SEQ ID NO:23 (RAAPYGVRLCGREFIRAVIFTCGGSRWQDLQTLCCTDGCSMTDLSALC; Human Relaxin-3/Insulin-like 5 chimeric mature polypeptide) | no binding affinity | – | – | – | low nanomolar range | low nanomolar range | –
R3/I6: chimeric polypeptide: human relaxin-3 B-chain and INSL6 A-chain; mature polypeptide SEQ ID NO:24 (RAAPYGVRLCGREFIRAVIFTCGGSRWGYSEKCCLTGCTKEELSIAC; Human Relaxin-3/Insulin-like 6 chimeric mature polypeptide) | no binding affinity | – | – | – | – | – | 10 to 15 nM

Reference: patent US7893197B2, “Relaxin-3 chimeric polypeptides and their preparation and use” (Janssen Pharmaceutica N.V., priority 2005, dated 2011)
